In patent US20240374744:

Tested on: huHF(+)-DOX (huHF(+) protein nanoparticle-doxorubicin conjugate)
Sequence (chain, as listed by the source): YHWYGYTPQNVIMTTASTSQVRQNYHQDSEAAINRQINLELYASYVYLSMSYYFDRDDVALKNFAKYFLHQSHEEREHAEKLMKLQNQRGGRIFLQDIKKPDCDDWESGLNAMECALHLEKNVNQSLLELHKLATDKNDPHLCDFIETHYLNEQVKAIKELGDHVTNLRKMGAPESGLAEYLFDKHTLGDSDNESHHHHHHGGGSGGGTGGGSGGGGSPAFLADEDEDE

Substance	cleavage of the conjugate and release of doxorubicin (native-PAGE, UV absorbance), enzyme in LPM mixture	cleavage of the conjugate and release of doxorubicin (native-PAGE, Coomassie staining, UV absorbance of doxorubicin)
cathepsin B	it was observed that the peptide was not specifically cleaved thereby the drug was not selectively released	
cathepsin D	it was observed that the peptide was not specifically cleaved thereby the drug was not selectively released	
cathepsin E		From 3 hours after staining, it was visually observed that the portion to which the anticancer drug was bound in the conjugate was effectively cleaved by cathepsin E
cathepsin L	it was observed that the peptide was not specifically cleaved thereby the drug was not selectively released	
